± gives the standard deviation of the averaged measurements.
Assay: total protein half-life in vivo (active degradation + dilution); higher = more stable protein
[1] = E. coli NCM3722 delta-clpP delta-lon delta-hslV, growth: N-lim chemostat, doubling time 6 h
[2] = E. coli NCM3722 delta-clpP, growth: N-lim chemostat, doubling time 6 h
[3] = E. coli NCM3722 delta-hslV, growth: N-lim chemostat, doubling time 6 h
[4] = E. coli NCM3722 delta-lon, growth: N-lim chemostat, doubling time 6 h
[5] = E. coli NCM3722 delta-smpB, growth: N-lim chemostat, doubling time 6 h
[6] = wild type E. coli NCM3722, growth: C-lim chemostat, doubling time 3 h
[7] = wild type E. coli NCM3722, growth: C-lim chemostat, doubling time 6 h
[8] = wild type E. coli NCM3722, growth: C-lim chemostat, doubling time 12 h
[9] = wild type E. coli NCM3722, growth: N-lim chemostat, doubling time 6 h
[10] = wild type E. coli NCM3722, growth: N-lim chemostat, doubling time 12 h
[11] = wild type E. coli NCM3722, growth: P-lim chemostat, doubling time 6 h
[12] = wild type E. coli NCM3722, growth: P-lim chemostat, doubling time 12 h

Sequence	total protein half-life in vivo [1]	total protein half-life in vivo [2]	total protein half-life in vivo [3]	total protein half-life in vivo [4]	total protein half-life in vivo [5]	total protein half-life in vivo [6]	total protein half-life in vivo [7]	total protein half-life in vivo [8]	total protein half-life in vivo [9]	total protein half-life in vivo [10]	total protein half-life in vivo [11]	total protein half-life in vivo [12]
MQVLHVCSEMFPLLKTGGLADVIGALPAAQIADGVDARVLLPAFPDIRRGVTDAQVVSRRDTFAGHITLLFGHYNGVGIYLIDAPHLYDRPGSPYHDTNLFAYTDNVLRFALLGWVGAEMASGLDPFWRPDVVHAHDWHAGLAPAYLAARGRPAKSVFTVHNLAYQGMFYAHHMNDIQLPWSFFNIHGLEFNGQISFLKAGLYYADHITAVSPTYAREITEPQFAYGMEGLLQQRHREGRLSGVLNGVDEKIWSPETDLLLASRYTRDTLEDKAENKRQLQIAMGLKVDDKVPLFAVVSRLTSQKGLDLVLEALPGLLEQGGQLALLGAGDPVLQEGFLAAAAEYPGQVGVQIGYHEAFSHRIMGGADVILVPSRFEPCGLTQLYGLKYGTLPLVRRTGGLADTVSDCSLENLADGVASGFVFEDSNAWSLLRAIRRAFVLWSRPSLWRFVQRQAMAMDFSWQVAAKSYRELYYRLK [P0A6U8]	6.98 ± 0.61 h	6.92 ± 1.1 h	6.028 ± 0.0091 h	5.806 ± 0.035 h	5.83 ± 0.06 h	3.03 ± 0.11 h	6.7 ± 0.36 h	11.4 ± 0.49 h	6.21 ± 0.21 h	13.2 ± 2 h	6.32 ± 0.3 h	12.4 ± 0.65 h
MQVLPPSSTGGPSRLFIMRPVATTLLMVAILLAGIIGYRALPVSALPEVDYPTIQVVTLYPGASPDVMTSAVTAPLERQFGQMSGLKQMSSQSSGGASVITLQFQLTLPLDVAEQEVQAAINAATNLLPSDLPNPPVYSKVNPADPPIMTLAVTSTAMPMTQVEDMVETRVAQKISQISGVGLVTLSGGQRPAVRVKLNAQAIAALGLTSETVRTAITGANVNSAKGSLDGPSRAVTLSANDQMQSAEEYRQLIIAYQNGAPIRLGDVATVEQGAENSWLGAWANKEQAIVMNVQRQPGANIISTADSIRQMLPQLTESLPKSVKVTVLSDRTTNIRASVDDTQFELMMAIALVVMIIYLFLRNIPATIIPGVAVPLSLIGTFAVMVFLDFSINNLTLMALTIATGFVVDDAIVVIENISRYIEKGEKPLAAALKGAGEIGFTIISLTFSLIAVLIPLLFMGDIVGRLFREFAITLAVAILISAVVSLTLTPMMCARMLSQESLRKQNRFSRASEKMFDRIIAAYGRGLAKVLNHPWLTLSVALSTLLLSVLLWVFIPKGFFPVQDNGIIQGTLQAPQSSSFANMAQRQRQVADVILQDPAVQSLTSFVGVDGTNPSLNSARLQINLKPLDERDDRVQKVIARLQTAVDKVPGVDLFLQPTQDLTIDTQVSRTQYQFTLQATSLDALSTWVPQLMEKLQQLPQLSDVSSDWQDKGLVAYVNVDRDSASRLGISMADVDNALYNAFGQRLISTIYTQANQYRVVLEHNTENTPGLAALDTIRLTSSDGGVVPLSSIAKIEQRFAPLSINHLDQFPVTTISFNVPDNYSLGDAVQAIMDTEKTLNLPVDITTQFQGSTLAFQSALGSTVWLIVAAVVAMYIVLGILYESFIHPITILSTLPTAGVGALLALLIAGSELDVIAIIGIILLIGIVKKNAIMMIDFALAAEREQGMSPREAIYQACLLRFRPILMTTLAALLGALPLMLSTGVGAELRRPLGIGMVGGLIVSQVLTLFTTPVIYLLFDRLALWTKSRFARHEEEA	6.53 ± 0.31 h	6.24 ± 0.12 h	6.58 ± 0.74 h	6.07 ± 0.56 h	5.45 ± 0.45 h	2.98 h	6.17 ± 0.74 h	–	6.15 ± 0.94 h	13.1 ± 0.4 h	7.07 ± 0.49 h	12.347 ± 0.0014 h
MQYHRIPHSSLEVSTLGLGTMTFGEQNSEADAHAQLDYAVAQGINLIDVAEMYPVPPRPETQGLTETYVGNWLAKHGSREKLIIASKVSGPSRNNDKGIRPDQALDRKNIREALHDSLKRLQTDYLDLYQVHWPQRPTNCFGKLGYSWTDSAPAVSLLDTLDALAEYQRAGKIRYIGVSNETAFGVMRYLHLADKHDLPRIVTIQNPYSLLNRSFEVGLAEVSQYEGVELLAYSCLGFGTLTGKYLNGAKPAGARNTLFSRFTRYSGEQTQKAVAAYVDIARRHGLDPAQMALAFVRRQPFVASTLLGATTMDQLKTNIESLHLELSEDVLAEIEAVHQVYTYPAP [P0A9T4]	5.76 ± 0.33 h	5.29 ± 0.14 h	5.5 ± 0.14 h	4.99 ± 0.068 h	4.6 ± 0.38 h	3.41 ± 0.077 h	5.9 ± 0.19 h	10.4 ± 0.85 h	4.88 ± 0.55 h	8.51 ± 0.57 h	6.32 ± 0.44 h	12.8 ± 0.13 h
MQYIKIHALDNVAVALADLAEGTEVSVDNQTVTLRQDVARGHKFALTDIAKGANVIKYGLPIGYALADIAAGVHVHAHNTRTNLSDLDQYRYQPDFQDLPAQAADREVQIYRRANGDVGVRNELWILPTVGCVNGIARQIQNRFLKETNNAEGTDGVFLFSHTYGCSQLGDDHINTRTMLQNMVRHPNAGAVLVIGLGCENNQVAAFRETLGDIDPERVHFMICQQQDDEIEAGIEHLHQLYNVMRNDKREPGKLSELKFGLECGGSDGLSGITANPMLGRFSDYVIANGGTTVLTEVPEMFGAEQLLMDHCRDEATFEKLVTMVNDFKQYFIAHDQPIYENPSPGNKAGGITTLEDKSLGCTQKAGSSVVVDVLRYGERLKTPGLNLLSAPGNDAVATSALAGAGCHMVLFSTGRGTPYGGFVPTVKIATNSELAAKKKHWIDFDAGQLIHGKAMPQLLEEFIDTIVEFANGKQTCNERNDFRELAIFKSGVTL	4.17 ± 0.22 h	3.03 ± 0.15 h	2.65 ± 0.042 h	3.4 h	2.51 ± 0.36 h	2.61 ± 0.27 h	3.9 ± 0.23 h	4.43 ± 0.69 h	2.63 ± 0.13 h	3.74 ± 0.76 h	3.94 ± 1.4 h	6.84 ± 1.4 h
MQYWGKIIGVAVALLMGGGFWGVVLGLLIGHMFDKARSRKMAWFANQRERQALFFATTFEVMGHLTKSKGRVTEADIHIASQLMDRMNLHGASRTAAQNAFRVGKSDNYPLREKMRQFRSVCFGRFDLIRMFLEIQIQAAFADGSLHPNERAVLYVIAEELGISRAQFDQFLRMMQGGAQFGGGYQQQTGGGNWQQAQRGPTLEDACNVLGVKPTDDATTIKRAYRKLMSEHHPDKLVAKGLPPEMMEMAKQKAQEIQQAYELIKQQKGFK	–	6.42 ± 1.5 h	–	5.92 ± 0.42 h	5.91 ± 0.58 h	2.98 ± 0.14 h	5.97 ± 0.2 h	11.2 ± 0.66 h	6.24 ± 0.77 h	11.8 ± 1 h	6.61 ± 0.12 h	12.7 ± 1 h
MRADKSLSPFEIRVYRHYRIVHGTRVALAFLLTFLIIRLFTIPESTWPLVTMVVIMGPISFWGNVVPRAFERIGGTVLGSILGLIALQLELISLPLMLVWCAAAMFLCGWLALGKKPYQGLLIGVTLAIVVGSPTGEIDTALWRSGDVILGSLLAMLFTGIWPQRAFIHWRIQLAKSLTEYNRVYQSAFSPNLLERPRLESHLQKLLTDAVKMRGLIAPASKETRIPKSIYEGIQTINRNLVCMLELQINAYWATRPSHFVLLNAQKLRDTQHMMQQILLSLVHALYEGNPQPVFANTEKLNDAVEELRQLLNNHHDLKVVETPIYGYVWLNMETAHQLELLSNLICRALRK	6.005 ± 0.0077 h	–	5.415 ± 0.036 h	6.43 ± 0.51 h	5.53 ± 1.8 h	3.27 ± 0.35 h	5.4 ± 0.19 h	11.5 ± 0.28 h	5.61 ± 0.075 h	7.75 ± 6 h	4.76 ± 2.1 h	10.6 ± 3.9 h
MRAKLLGIVLTTPIAISSFASTETLSFTPDNINADISLGTLSGKTKERVYLAEEGGRKVSQLDWKFNNAAIIKGAINWDLMPQISIGAAGWTTLGSRGGNMVDQDWMDSSNPGTWTDESRHPDTQLNYANEFDLNIKGWLLNEPNYRLGLMAGYQESRYSFTARGGSYIYSSEEGFRDDIGSFPNGERAIGYKQRFKMPYIGLTGSYRYEDFELGGTFKYSGWVESSDNDEHYDPGKRITYRSKVKDQNYYSVAVNAGYYVTPNAKVYVEGAWNRVTNKKGNTSLYDHNNNTSDYSKNGAGIENYNFITTAGLKYTF	–	6.57 ± 0.46 h	6.305 ± 0.013 h	6.712 ± 0.042 h	5.81 ± 0.35 h	3.21 ± 0.091 h	6.17 ± 0.45 h	11.5 ± 0.18 h	6.05 ± 0.22 h	12.2 ± 2.6 h	6.51 ± 0.55 h	13.498 ± 0.0072 h
MRALPICLVALMLSGCSMLSRSPVEPVQSTAPQPKAEPAKPKAPRATPVRIYTNAEELVGKPFRDLGEVSGDSCQASNQDSPPSIPTARKRMQINASKMKANAVLLHSCEVTSGTPGCYRQAVCIGSALNITAK	5.47 ± 0.43 h	5.57 ± 0.38 h	6.58 ± 0.75 h	6.404 ± 0.011 h	5.51 ± 0.33 h	2.89 ± 0.62 h	5.65 ± 0.51 h	12.4 ± 3.6 h	5.65 ± 0.16 h	14.7 ± 1.2 h	6.5 ± 1.4 h	13.4 ± 0.85 h
MRCKGFLFDLDGTLVDSLPAVERAWSNWARRHGLAPEEVLAFIHGKQAITSLRHFMAGKSEADIAAEFTRLEHIEATETEGITALPGAIALLSHLNKAGIPWAIVTSGSMPVARARHKIAGLPAPEVFVTAERVKRGKPEPDAYLLGAQLLGLAPQECVVVEDAPAGVLSGLAAGCHVIAVNAPADTPRLNEVDLVLHSLEQITVTKQPNGDVIIQ	4.84 ± 0.48 h	5.45 ± 1.7 h	4.91 ± 0.61 h	5.46 ± 0.45 h	3.992 ± 0.0097 h	3.06 ± 0.1 h	6.07 ± 0.31 h	10.1 ± 0.43 h	4.54 ± 0.39 h	6.8 ± 0.18 h	5.77 ± 0.43 h	11.4 ± 0.17 h
